Assay results taken from publication doi:10.1101/2023.05.09.539743 (bioRxiv, 2023).

Target: T1, His-ARS2^147-871 (human, UniProt Q9BXP5-4 147-871)
T1 sequence (looked up): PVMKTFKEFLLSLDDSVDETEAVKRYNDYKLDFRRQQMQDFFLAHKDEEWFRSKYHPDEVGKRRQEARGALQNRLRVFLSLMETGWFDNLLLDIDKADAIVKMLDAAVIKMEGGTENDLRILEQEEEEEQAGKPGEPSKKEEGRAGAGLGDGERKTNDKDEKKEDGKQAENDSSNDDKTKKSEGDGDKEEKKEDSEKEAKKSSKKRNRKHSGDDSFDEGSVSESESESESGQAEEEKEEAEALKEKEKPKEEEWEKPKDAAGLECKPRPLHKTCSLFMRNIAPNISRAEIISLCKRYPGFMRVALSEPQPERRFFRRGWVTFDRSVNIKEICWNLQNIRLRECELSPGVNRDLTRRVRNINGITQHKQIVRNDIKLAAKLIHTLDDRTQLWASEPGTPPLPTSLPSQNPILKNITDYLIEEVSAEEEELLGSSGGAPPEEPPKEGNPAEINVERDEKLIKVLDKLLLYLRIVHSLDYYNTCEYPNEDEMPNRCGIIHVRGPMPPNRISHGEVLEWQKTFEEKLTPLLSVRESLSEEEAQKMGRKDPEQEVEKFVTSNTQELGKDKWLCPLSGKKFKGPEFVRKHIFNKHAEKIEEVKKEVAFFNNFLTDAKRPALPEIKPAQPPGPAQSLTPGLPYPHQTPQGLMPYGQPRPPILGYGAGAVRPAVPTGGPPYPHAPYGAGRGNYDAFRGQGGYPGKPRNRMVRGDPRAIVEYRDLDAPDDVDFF
Test: pull-down

SSGLSPKEEGELEDGEISDDDNNSQ (domain or fragment, human, UniProt O60293 11-35, looked up) [His-MBP-Z1^11-35(WT)]
binding result: binds
